In article PMC9916804:

The substances below were run against gametogenesis essential protein 1 (GEP1), truncation GEP1^192-905, Strep-tagged (assay: pull-down (Strep-Tactin beads), GFP intensity of elution). Settings: co-expression of GEP1-192-905 and GCα-2301-3850; parent: est. 100; read off a plot.
Design: reference not given here
“guanylate cyclase α C-terminal half, GCα^2301-3850, with N-terminal mEGFP D3642V” showed a percent of parent of 100%. With “guanylate cyclase α C-terminal half, GCα^2301-3850, with N-terminal mEGFP D3598A” the percent of parent was 110%. “guanylate cyclase α C-terminal half, GCα^2301-3850, with N-terminal mEGFP S2910W” gave a percent of parent of 74%. “guanylate cyclase α C-terminal half, GCα^2301-3850, with N-terminal mEGFP E2794A” showed a percent of parent of 80%. “guanylate cyclase α C-terminal half, GCα^2301-3850, with N-terminal mEGFP N3724W” showed a percent of parent of 110%.

What follows are substances tested against gametogenesis essential protein 1 (GEP1), truncation GEP1^192-905, Strep-tagged (Plasmodium yoelii) (assay: pull-down; mutants of mEGFP-GCα^2301-3850 with Strep-tagged GEP1^192-905 on Strep-Tactin beads; GFP intensity of the eluates against WT; whether co-expressed or mixed is not stated). Settings: not given.
“GCα^2301-3850 (GCα-C) Q2755A, mEGFP-tagged (domain or fragment)” was tested, and the GFP intensity of the pull-down eluate, percent of WT was 49.2 % of WT.
